According to patent publication US9914781 (GlaxoSmithKline, dated 2018):

Columns and labels:
[1] = target: T1, human full-length TrkB receptor (human, UniProt Q16620 32-822); experiment: cell-based or functional assay
[2] = target: T2, recombinant human TrkB extracellular domain (FLAG tag-GSA-C32-H430-His5) (human, UniProt Q16620 31-430); experiment: SPR, human TrkB-ECD
T2 construct: Single alanine mutants were made in this ECD; also called TrkB-ECD; TrkB ECD; not shown: FLAG tag

[3] = target: T1, human full-length TrkB receptor; experiment: cell-based or functional assay; remark: listed apart in the source
[4] = target: T1, human full-length TrkB receptor; experiment: cell-based or functional assay; remark: listed apart in the source
[5] = target: T2, recombinant human TrkB extracellular …; experiment: SPR, 1:1 binding mode, recombinant human TrkB-ECD
[6] = target: T3, recombinant cynomolgus TrkB-ECD (cynomolgus, UniProt A0A2K5VS06 32-430); experiment: SPR, 1:1 binding mode, recombinant cynomolgus TrkB-ECD
T3 construct: extracellular domain

human FcRn = human FcRn (human, UniProt P55899 24-297; P61769 21-119, limits assumed); experiment: SPR
Sequence of human FcRn (P55899 24-297 limits assumed, chain 1 of 2): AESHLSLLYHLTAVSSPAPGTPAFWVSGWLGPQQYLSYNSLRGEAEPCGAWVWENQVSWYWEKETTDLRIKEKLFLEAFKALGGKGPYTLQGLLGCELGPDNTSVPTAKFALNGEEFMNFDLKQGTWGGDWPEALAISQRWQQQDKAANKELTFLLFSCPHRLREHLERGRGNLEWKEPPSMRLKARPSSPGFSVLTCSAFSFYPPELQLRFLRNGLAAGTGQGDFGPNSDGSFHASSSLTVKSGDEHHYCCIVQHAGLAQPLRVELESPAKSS
Sequence of human FcRn (P61769 21-119 limits assumed, chain 2 of 2): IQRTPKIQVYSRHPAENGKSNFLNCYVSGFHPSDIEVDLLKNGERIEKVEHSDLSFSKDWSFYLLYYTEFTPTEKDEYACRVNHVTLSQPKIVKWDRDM

[7] = target: T4, pan-neurotrophin receptor p75^NTR (UniProt P08138 29-427, limits assumed); experiment: cell based binding assay
T4 construct: whole, on cells
T4 sequence (looked up): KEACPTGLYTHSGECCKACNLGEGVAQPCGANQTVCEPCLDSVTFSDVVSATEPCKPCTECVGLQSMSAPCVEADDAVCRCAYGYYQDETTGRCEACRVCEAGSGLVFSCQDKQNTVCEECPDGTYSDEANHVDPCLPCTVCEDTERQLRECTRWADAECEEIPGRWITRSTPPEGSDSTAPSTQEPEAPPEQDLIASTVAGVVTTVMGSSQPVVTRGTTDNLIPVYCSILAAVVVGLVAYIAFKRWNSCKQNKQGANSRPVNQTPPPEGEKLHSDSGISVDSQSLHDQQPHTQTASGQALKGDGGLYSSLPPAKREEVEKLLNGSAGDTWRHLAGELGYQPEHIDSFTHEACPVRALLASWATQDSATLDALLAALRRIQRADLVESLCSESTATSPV

[8] = target: TrkB D1-D3 domain variant (C32-L196) (human, UniProt Q16620 32-196); experiment: SPR with TrkB domain deletion variants
Sequence of TrkB D1-D3 domain variant (C32-L196) (Q16620 32-196 limits assumed, stated change not applied): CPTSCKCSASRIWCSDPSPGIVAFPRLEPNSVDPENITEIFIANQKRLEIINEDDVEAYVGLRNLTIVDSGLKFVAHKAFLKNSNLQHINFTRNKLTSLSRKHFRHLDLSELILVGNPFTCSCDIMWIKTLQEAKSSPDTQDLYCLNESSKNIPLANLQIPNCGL

murine TrkB receptor = target: T5, murine TrkB receptor (murine, UniProt P15209 32-821); experiment: recombinant TrkB in a heterologous cell line, primary cells or human iPSC derived cells
T5 construct: whole, on cells; also called mouse TrkB; rodent TrkB
T5 sequence (P15209 32-821): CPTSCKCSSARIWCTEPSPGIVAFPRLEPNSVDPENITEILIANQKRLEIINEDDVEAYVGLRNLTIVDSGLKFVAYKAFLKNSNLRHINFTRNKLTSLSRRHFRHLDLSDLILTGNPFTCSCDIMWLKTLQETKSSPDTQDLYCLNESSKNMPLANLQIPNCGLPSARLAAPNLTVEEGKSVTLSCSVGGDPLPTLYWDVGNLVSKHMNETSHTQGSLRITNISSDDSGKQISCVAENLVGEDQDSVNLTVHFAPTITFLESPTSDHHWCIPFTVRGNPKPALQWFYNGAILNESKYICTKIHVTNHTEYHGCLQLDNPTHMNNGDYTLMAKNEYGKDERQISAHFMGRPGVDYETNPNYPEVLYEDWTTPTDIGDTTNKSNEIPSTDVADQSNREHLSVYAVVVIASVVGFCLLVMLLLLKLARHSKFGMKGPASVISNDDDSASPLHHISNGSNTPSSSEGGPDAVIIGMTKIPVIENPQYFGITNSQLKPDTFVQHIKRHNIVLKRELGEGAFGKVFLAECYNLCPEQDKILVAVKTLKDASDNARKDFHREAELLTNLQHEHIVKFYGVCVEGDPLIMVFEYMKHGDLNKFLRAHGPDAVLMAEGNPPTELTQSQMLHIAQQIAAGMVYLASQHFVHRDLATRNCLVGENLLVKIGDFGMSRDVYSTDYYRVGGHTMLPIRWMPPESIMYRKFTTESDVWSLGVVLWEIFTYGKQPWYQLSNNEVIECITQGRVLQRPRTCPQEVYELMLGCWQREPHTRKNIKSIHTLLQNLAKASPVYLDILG

rat TrkB receptor = target: T6, rat TrkB receptor (rat, UniProt Q63604 32-821); experiment: as above
T6 construct: whole, on cells; also called rodent TrkB
T6 sequence (Q63604 32-821): as the sequence (P15209 32-821) above, with T3M, S9T, A10T, V32I, R63K, S84G, M153T, L185I, S394T, S770N counted along it

TrkB_H284-H430 ECD-6H = target: T7, TrkB_H284-H430 ECD-6H (human, UniProt Q16620 284-430); experiment: SEC-MALS
T7 construct: the SEC-MALS construct is named only by its residue limits and tag; also called soluble truncated form of the ECD of TrkB
T7 sequence (Q16620 other isoform, or with tags, fused parts or gaps limits assumed): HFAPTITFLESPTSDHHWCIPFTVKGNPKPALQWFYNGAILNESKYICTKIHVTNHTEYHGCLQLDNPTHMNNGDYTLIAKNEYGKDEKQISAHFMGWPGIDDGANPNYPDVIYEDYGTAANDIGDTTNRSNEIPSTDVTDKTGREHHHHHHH

T1 sequence (Q16620 32-822 limits assumed): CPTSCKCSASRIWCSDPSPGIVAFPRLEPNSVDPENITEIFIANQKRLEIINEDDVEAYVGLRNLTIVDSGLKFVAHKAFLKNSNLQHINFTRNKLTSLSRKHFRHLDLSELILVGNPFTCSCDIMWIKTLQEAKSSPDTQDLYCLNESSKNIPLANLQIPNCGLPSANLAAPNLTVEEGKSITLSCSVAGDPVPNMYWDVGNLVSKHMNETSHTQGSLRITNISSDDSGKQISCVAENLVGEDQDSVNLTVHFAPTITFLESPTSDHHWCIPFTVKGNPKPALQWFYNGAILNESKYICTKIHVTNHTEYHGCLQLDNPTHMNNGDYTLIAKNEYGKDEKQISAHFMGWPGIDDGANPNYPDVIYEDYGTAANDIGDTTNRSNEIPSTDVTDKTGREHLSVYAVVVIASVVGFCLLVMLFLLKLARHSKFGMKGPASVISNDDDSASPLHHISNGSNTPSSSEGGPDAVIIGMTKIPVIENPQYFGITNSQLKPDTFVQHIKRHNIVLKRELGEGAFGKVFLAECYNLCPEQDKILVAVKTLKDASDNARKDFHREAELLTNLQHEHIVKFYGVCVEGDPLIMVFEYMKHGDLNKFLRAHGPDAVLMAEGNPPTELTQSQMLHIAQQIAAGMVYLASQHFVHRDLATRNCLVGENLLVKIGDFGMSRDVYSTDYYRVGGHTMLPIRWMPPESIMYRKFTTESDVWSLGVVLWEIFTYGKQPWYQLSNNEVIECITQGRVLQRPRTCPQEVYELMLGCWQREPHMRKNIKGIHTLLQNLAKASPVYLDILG
T2 sequence (Q16620 other isoform, or with tags, fused parts or gaps): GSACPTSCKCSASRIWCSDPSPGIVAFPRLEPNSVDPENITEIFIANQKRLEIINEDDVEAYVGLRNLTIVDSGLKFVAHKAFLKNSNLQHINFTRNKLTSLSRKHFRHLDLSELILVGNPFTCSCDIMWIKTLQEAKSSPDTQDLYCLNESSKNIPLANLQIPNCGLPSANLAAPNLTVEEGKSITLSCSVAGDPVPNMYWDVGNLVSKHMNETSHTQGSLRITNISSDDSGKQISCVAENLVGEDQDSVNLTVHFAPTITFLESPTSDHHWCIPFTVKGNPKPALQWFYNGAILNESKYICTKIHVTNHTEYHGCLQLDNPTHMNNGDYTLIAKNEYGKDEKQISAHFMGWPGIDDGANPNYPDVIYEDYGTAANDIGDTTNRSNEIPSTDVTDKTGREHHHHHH

Row | Binder | cell survival, EC50 [1] [nM] | Kd [2] [nM] | koff [2] [s⁻¹] | kon [2] [M⁻¹ s⁻¹] | Activation of TrkB (pTrkB), EC50 [3] [nM] | Potentiation of BDNF-induced agonism of TrkB (pTrkB, BDNF alone = 100%) [3] [%] | EC50 (read off the curve), potentiation of pTrkB in the presence of 10 nM BDNF [4] [nM] | cell survival, rat PC12 cells stably expressing human full length TrkB, EC50 [1] [nM] | neurite outgrowth, rat PC12 cells stably expressing human full length TrkB, EC50 [1] [nM] | further results
1 | 3A3 (murine TrkB agonist monoclonal antibody) (antibody, mouse IgG1, kappa, V domains shown, Full length murine chains; also called 3B3; 3A3 (=3B3)) VH: QVQLQQSGAELAKPGASVKMSCKASGYTFSSYWMHWVKQRPGQGLEWIGYINPSTGYTDYNQKFKDKATLTADKSSNTAYMQLSSLTSDDSAVYYCARSRAARYWGQGTTLTVSS VL: not shown | 0.006 | ~7.5 | 0.000897 | 120000 | 0.2 to 0.6 | ~160 | ~0.7 | – | – | –
2 | 5D11 (murine TrkB agonist monoclonal antibody) (antibody, mouse IgG1, kappa, V domains shown, Full length murine chains; same as 3E10; also called 3E10; 5D11 (=3E10)) VH: QVHLQQSGAELVRPGTSVKVSCKASGYAFTNYLIEWIKQRPGQGLEWIGVINPGSGGTNYNDKFKGKAILTADKSSTTAYMQLSSLTSDDSAVYFCARGGNDYGDYWGQGTSVTVSS VL: DIVLTQSPASLAVSLGQRATISCRASQSVSTSFYSYMHWYQQKPGQPPKVFIKYASNLQSGVPARFSGSGSGTDFTLNIHPVEEDDTATYYCQHSWEIPWTFGGGTKLEIKR | – | ~3.3 | 0.000145 | 44100 | 1 to 2 | – | – | – | – | –
3 | Humanised 1G11 (H7, Lo1) (antibody, human IgG1, kappa, Straight graft with serine at Kabat position 47 of VH; human IgG1 Fc with L235A and G237A (EU), Fc-disabled) heavy: not shown light: EIVLTQSPATLSLSPGERATLSCRASQRISNNLHWYQQKPGQAPRLLIKYVSQSISGIPARFSGSGSGTDFTLTISSLEPEDFAVYYCQQSNSWPLTFGQGTKLEIKRTVAAPSVFIFPPSDEQLKSGTASVVCLLNNFYPREAKVQWKVDNALQSGNSQESVTEQDSKDSTYSLSSTLTLSKADYEKHKVYACEVTHQGLSSPVTKSFNRGEC | – | – | – | – | – | – | – | 0.007 | 0.07 | Activation of TrkB (pTrkB), EC50, CHO-K1 cells [1]: 0.65 nM; Kd [5]: ~55 nM; Kd [6]: ~60 nM; binding result (human FcRn): binds
4 | 1G11 (murine TrkB agonist monoclonal antibody) (antibody, V domains shown, Full length murine heavy and light chains; from a hybridoma of Balb/c mice immunised with human TrkB-ECD; Not Fc-disabled; also called 1G11 mAb; murine 1G11) VH: QVQLQQSGDDLVKPGASVKLSCKASGYTFTSYYINWIKQRPGQGLECIGRIAPGNTYYNEIFKGKAILTVDTSSSTAYIQLSSLSSEDSGVYFCARRGYEGALDYWGQGTSVTVSS VL: DIVLTQSPATLSVTPGDSVSLSCRASQRISNNLHWYQQKSHESPRLLIKYVSQSISGIPSRFSGSGSGTDFTLSINSVETEDFGMYFCQQSNSWPLTFGAGTKLELKR | – | ~42 | 0.00239 | 56600 | – | ~130 | ~10 | 0.025 | 0.19 | Activation of TrkB (pTrkB, Y515), EC50, CHO-K1 cells [3]: 3.1 nM; binding result [7]: no binding; binding result [8]: no binding; binding result (murine TrkB receptor): binds; binding result (rat TrkB receptor): binds
5 | 8E5 (murine TrkB agonist monoclonal antibody) (antibody, mouse IgG1, kappa, V domains shown, Full length murine chains) VH: EVQLVESGGDLVKPGGSLKLSCAASGFTFSTYGMSWVRQTPDKGLEWVATVSTGGTYTYYPDSVKGRFTISRDNAKNTLYLQMSSLKSEDTAMYYCARGGYSFAYWGQGTLVTVSA VL: ENVLTQSPAIMSASPGEKVTMTCRASSSVSSSYLHWYQQKSGVSPKLWIYSTSNLASGVPARFSGSGSGTSYSLTISSVEAEDAATYYCQQYSGYPLTFGAGTKLELKR | 0.09 | ~9.8 | 0.000676 | 69000 | ~15 | ~120 | – | – | – | neurite outgrowth, EC50 [1]: 1.58 nM
6 | Brain Derived Neurotrophic Factor (BDNF) (ligand, UniProt P23560 129-247, looked up, also called BNDF) HSDPARRGELSVCDSISEWVTAADKKTAVDMSGGTVTVLEKVPVSKGQLKQYFYETKCNPMGYTKEGCRGIDKRHWNSQCRTTQSYVRALTMDSKKRIGWRFIRIDTSCVCTLTIKRGR | – | – | – | – | – | – | – | – | – | binding result (TrkB_H284-H430 ECD-6H): binds
